Series [1] in a line: HP-SEC as in Example 20, fraction of peak area; Fc:Fc self-oligomerization. In general terms: In gel filtration, larger molecules generally elute earlier.
Series [2] in a line: HP-SEC, 0.15 M NaCl/0.1 M citrate pH 5.0; Fc:Fc self-oligomerization.
Series [3] in a line: HP-SEC as in Example 20; Fc:Fc self-oligomerization.
Series [4] can be described thus: HP-SEC, PBS pH 7.4 as mobile phase; Fc:Fc self-oligomerization.
A short description of series [5]: HP-SEC, 0.15 M NaCl/0.1 M citrate pH 6.8; Fc:Fc self-oligomerization.
Series [6] can be described thus: HP-SEC, 0.1 M Na2SO4/0.1 M sodium phosphate pH 6.8 (Example 23); Fc:Fc self-oligomerization.
A short description of series [7]: HP-SEC, 0.1 M Na2SO4/0.1 M sodium phosphate pH 6.8; Fc:Fc self-oligomerization.

Where only a bound is given, the exact number is not on record here.

B1: Fc-RGY (IgG1m(f) Fc fragment with E345R, E430G and S440Y) (protein)
chain: EPKSCDKTHTCPPCPAPELLGGPSVFLFPPKPKDTLMISRTPEVTCVVVDVSHEDPEVKFNWYVDGVEVHNAKTKPREEQYNSTYRVVSVLTVLHQDWLNGKEYKCKVSNKALPAPIEKTISKAKGQPRRPQVYTLPPSREEMTKNQVSLTCLVKGFYPSDIAVEWESNGQPENNYKTTPPVLDSDGSFFLYSKLTVDKSRWQQGNVFSCSVMHGALHNHYTQKYLSLSPGK
For the protein B1, in series [1], the “fraction monomers (HP-SEC)” value is “approximately 28% monomers” and the “fraction oligomers (HP-SEC)” value is given as 72% oligomers distributed over multiple states.

B2: IgG1-005-E345R/E430G/S440Y (protein)
chain: ASTKGPSVFPLAPSSKSTSGGTAALGCLVKDYFPEPVTVSWNSGALTSGVHTFPAVLQSSGLYSLSSVVTVPSSSLGTQTYICNVNHKPSNTKVDKRVEPKSCDKTHTCPPCPAPELLGGPSVFLFPPKPKDTLMISRTPEVTCVVVDVSHEDPEVKFNWYVDGVEVHNAKTKPREEQYNSTYRVVSVLTVLHQDWLNGKEYKCKVSNKALPAPIEKTISKAKGQPRRPQVYTLPPSREEMTKNQVSLTCLVKGFYPSDIAVEWESNGQPENNYKTTPPVLDSDGSFFLYSKLTVDKSRWQQGNVFSCSVMHGALHNHYTQKYLSLSPGK
For B2, the “fraction monomeric species (HP-SEC)” value is listed as >99% of the protein eluting as a monomeric species in series [2], 23% of the population eluted as a monomeric species in series [6] and 21% of the population eluted in a peak observed at the expected elution time for a monomeric species in series [7]. Moreover, in series [2], the “fraction multimer (HP-SEC)” value is “The fraction multimer dropped to less than 1%”. Moreover, the “% multimeric (HP-SEC)” value in series [3] is given as “IgG1-005-RGY (79.2% multimeric)”. Also, the “% multimers (HP-SEC)” value in series [4] is “IgG1-005-RGY (84% multimers)”. Besides, the “oligomerization (HP-SEC)” value in series [5] was “in citrate pH 6.8 the antibody displayed 84% oligomerization”. The “fraction oligomer (HP-SEC)” value in series [6] is recorded as “a fraction oligomer of 77%”; in series [7], “a large fraction oligomer which was estimated at 79%”.

B3: IgG1-005-E345R/E430G/K439E/S440Y (protein)
chain: ASTKGPSVFPLAPSSKSTSGGTAALGCLVKDYFPEPVTVSWNSGALTSGVHTFPAVLQSSGLYSLSSVVTVPSSSLGTQTYICNVNHKPSNTKVDKRVEPKSCDKTHTCPPCPAPELLGGPSVFLFPPKPKDTLMISRTPEVTCVVVDVSHEDPEVKFNWYVDGVEVHNAKTKPREEQYNSTYRVVSVLTVLHQDWLNGKEYKCKVSNKALPAPIEKTISKAKGQPRRPQVYTLPPSREEMTKNQVSLTCLVKGFYPSDIAVEWESNGQPENNYKTTPPVLDSDGSFFLYSKLTVDKSRWQQGNVFSCSVMHGALHNHYTQEYLSLSPGK
As for B3, the “% multimers (HP-SEC)” value in series [4] is recorded as “IgG1-005-RGEY (2.7% multimers)”.

B4: IgG1-005-E345R/E430G/Y436I/S440K (protein)
chain: ASTKGPSVFPLAPSSKSTSGGTAALGCLVKDYFPEPVTVSWNSGALTSGVHTFPAVLQSSGLYSLSSVVTVPSSSLGTQTYICNVNHKPSNTKVDKRVEPKSCDKTHTCPPCPAPELLGGPSVFLFPPKPKDTLMISRTPEVTCVVVDVSHEDPEVKFNWYVDGVEVHNAKTKPREEQYNSTYRVVSVLTVLHQDWLNGKEYKCKVSNKALPAPIEKTISKAKGQPRRPQVYTLPPSREEMTKNQVSLTCLVKGFYPSDIAVEWESNGQPENNYKTTPPVLDSDGSFFLYSKLTVDKSRWQQGNVFSCSVMHGALHNHITQKKLSLSPGK
For B4, the “% multimers (HP-SEC)” value in series [4] was “IgG1-005-RGIK (1.8% multimers)”.

B5: IgG1-M1-RGY (C. albicans mannan antibody M1g1 with E345R/E430G/S440Y) (protein)
chain: ASTKGPSVFPLAPSSKSTSGGTAALGCLVKDYFPEPVTVSWNSGALTSGVHTFPAVLQSSGLYSLSSVVTVPSSSLGTQTYICNVNHKPSNTKVDKRVEPKSCDKTHTCPPCPAPELLGGPSVFLFPPKPKDTLMISRTPEVTCVVVDVSHEDPEVKFNWYVDGVEVHNAKTKPREEQYNSTYRVVSVLTVLHQDWLNGKEYKCKVSNKALPAPIEKTISKAKGQPRRPQVYTLPPSREEMTKNQVSLTCLVKGFYPSDIAVEWESNGQPENNYKTTPPVLDSDGSFFLYSKLTVDKSRWQQGNVFSCSVMHGALHNHYTQKYLSLSPGK
Regarding B5, the “fraction oligomer (HP-SEC)” value in series [3] was “IgG1-M1-RGY (74.5%)”.

B6: IgG1-005-E345R/E430G/S440K (protein)
chain: ASTKGPSVFPLAPSSKSTSGGTAALGCLVKDYFPEPVTVSWNSGALTSGVHTFPAVLQSSGLYSLSSVVTVPSSSLGTQTYICNVNHKPSNTKVDKRVEPKSCDKTHTCPPCPAPELLGGPSVFLFPPKPKDTLMISRTPEVTCVVVDVSHEDPEVKFNWYVDGVEVHNAKTKPREEQYNSTYRVVSVLTVLHQDWLNGKEYKCKVSNKALPAPIEKTISKAKGQPRRPQVYTLPPSREEMTKNQVSLTCLVKGFYPSDIAVEWESNGQPENNYKTTPPVLDSDGSFFLYSKLTVDKSRWQQGNVFSCSVMHGALHNHYTQKKLSLSPGK
Take B6: the “% multimers (HP-SEC)” value in series [4] was “IgG1-005-RGK (2.2% multimers)”.

The values above are taken from patent US20150175707.
